{"source": "paper PMC8200818", "about": "“SPECT/CT Imaging, Biodistribution and Radiation Dosimetry of a ^177Lu-DOTA-Integrin αvβ6 Cystine Knot Peptide in a Pancreatic Cancer Xenograft Model” (Frontiers in Oncology, 2021)", "key": {"[1]": {"target": "T1, integrin αvβ6 (BxPC-3 cells) (Homo sapiens, UniProt P06756+P18564)", "T1 construct": "endogenous in cells; host or cells: BxPC-3 (whole adherent cells)", "T1 sequence (P06756 31-889 limits assumed)": "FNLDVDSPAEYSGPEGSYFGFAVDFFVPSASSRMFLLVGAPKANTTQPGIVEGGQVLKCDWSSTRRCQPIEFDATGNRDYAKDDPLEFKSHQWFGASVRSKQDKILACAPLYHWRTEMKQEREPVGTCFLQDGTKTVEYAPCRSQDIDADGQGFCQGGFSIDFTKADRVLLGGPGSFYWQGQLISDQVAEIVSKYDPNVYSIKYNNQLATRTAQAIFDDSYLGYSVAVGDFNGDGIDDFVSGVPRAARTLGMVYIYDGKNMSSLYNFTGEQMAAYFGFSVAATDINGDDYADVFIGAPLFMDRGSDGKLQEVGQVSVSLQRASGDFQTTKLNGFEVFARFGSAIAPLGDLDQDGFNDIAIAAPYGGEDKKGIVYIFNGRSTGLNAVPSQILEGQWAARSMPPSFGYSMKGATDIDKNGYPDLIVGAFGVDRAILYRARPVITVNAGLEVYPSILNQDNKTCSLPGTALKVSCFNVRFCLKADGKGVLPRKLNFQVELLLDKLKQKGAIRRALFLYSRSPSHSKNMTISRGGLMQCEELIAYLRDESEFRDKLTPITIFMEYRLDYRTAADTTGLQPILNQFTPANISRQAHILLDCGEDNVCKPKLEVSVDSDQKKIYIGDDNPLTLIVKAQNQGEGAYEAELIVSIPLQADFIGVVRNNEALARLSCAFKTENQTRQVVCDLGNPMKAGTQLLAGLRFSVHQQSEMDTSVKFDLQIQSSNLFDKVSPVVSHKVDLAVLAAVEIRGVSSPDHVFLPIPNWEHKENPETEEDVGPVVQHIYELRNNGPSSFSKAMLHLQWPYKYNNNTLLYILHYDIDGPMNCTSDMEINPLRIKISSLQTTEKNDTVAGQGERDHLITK", "T1 sequence (P06756 891-1048 partner limits assumed)": "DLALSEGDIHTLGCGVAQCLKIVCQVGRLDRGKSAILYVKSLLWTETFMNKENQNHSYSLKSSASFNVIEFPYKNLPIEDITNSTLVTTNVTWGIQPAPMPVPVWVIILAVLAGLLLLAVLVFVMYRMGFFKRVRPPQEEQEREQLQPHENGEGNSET", "T1 sequence (P18564 22-788)": "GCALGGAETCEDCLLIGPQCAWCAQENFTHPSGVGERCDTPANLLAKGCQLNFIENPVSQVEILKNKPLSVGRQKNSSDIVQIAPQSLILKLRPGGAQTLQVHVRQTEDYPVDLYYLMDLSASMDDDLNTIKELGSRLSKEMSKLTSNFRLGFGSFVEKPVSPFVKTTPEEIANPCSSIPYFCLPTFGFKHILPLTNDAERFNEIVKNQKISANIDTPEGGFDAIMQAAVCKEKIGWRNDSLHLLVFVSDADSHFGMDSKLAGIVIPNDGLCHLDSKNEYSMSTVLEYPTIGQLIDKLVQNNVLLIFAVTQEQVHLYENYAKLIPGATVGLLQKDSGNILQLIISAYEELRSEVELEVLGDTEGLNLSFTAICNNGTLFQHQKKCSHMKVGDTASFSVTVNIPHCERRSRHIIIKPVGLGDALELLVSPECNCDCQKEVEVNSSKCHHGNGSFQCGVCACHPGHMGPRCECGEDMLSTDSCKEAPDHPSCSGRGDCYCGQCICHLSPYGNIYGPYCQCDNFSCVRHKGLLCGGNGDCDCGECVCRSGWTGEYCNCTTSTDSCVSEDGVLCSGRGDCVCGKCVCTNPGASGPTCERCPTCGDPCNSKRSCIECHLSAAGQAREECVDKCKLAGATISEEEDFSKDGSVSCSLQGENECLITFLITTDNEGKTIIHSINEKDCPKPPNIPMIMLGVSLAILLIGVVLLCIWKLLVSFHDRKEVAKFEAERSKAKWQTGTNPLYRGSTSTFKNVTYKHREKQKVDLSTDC", "experiment": "Competition binding assay, BxPC-3", "experimental": "The reaction volume was made up to 30 µl with water. The reaction was carried out for 10 minutes at 80°C.\nFor competitive radioligand binding assay, approximately 50,000 cells (BxPC-3 or Capan-2) per well were seeded in a 96 well plate incubated overnight at 37°C. […] After 2 hours of incubation, cells were washed for 2-3 times with ice-cold washing buffer (50 mM Tris-HCl, pH 7.4, 125 mM NaCl, 0.05% BSA) and lysed with 1 N NaOH (80 µl/well). The lysed cells were transferred to vials and measured in a gamma counter (Wallac 1470 Wizard, Perkin Elmer, Waltham, MA, USA). Obtained cpm values were plotted with GraphPad Prism and the data fitted using nonlinear regression (one site - fit Ki, one site - fit logIC50).\nAll statistical analyses were performed using GraphPad Prism 5.04. IC50 values were determined by nonlinear sigmoidal curve fitting with variable slope setting. All presented data are based on independent experiments. Numerical data for this study have been deposited in an open data repository for public access: http://doi.org/10.5281/zenodo.4362503."}, "[2]": {"experiment": "Dosimetric calculation for human adult male (OLINDA/EXM 1.1)", "description": "Assuming that the organ-to-whole-body activity concentration ratio in mice would equal that in humans, the injected activity concentration (%IA/g) acquired from the mouse biodistribution study was transformed to human whole-organ percentage of injected activity per gram of tissue (%IA/g) human. The mouse uptake data were extrapolated to humans by relative scaling of mass and time using the following two equations,\n(1) (%IA/organ)human=[(%IA/g)mouse×Mmouse(kg)×[m(g)/M(kg)]human\n(2) thuman=tanimal[Mhuman/Manimal]^0.25\nwhere %IA/g is percentage of injected activity per gram of tissue, %IA/organ is percentage of injected activity per organ; m is organ mass of mouse or human, M is body mass of mouse or human; t is time. The absorbed doses per activity were calculated by using the extrapolated human source organ residence times as input in the OLINDA/EXM 1.1 software (Organ Level Internal Dose Assessment Code, Vanderbilt University, Nashville, USA), with the reference adult male ([25])."}, "[3]": {"details": "adult male human, extrapolated from mouse biodistribution"}}, "note": "Entries after “also recorded” stand apart in the source; their conditions may differ."}
{"molecule": "CC[C@H](C)[C@@H]1NC(=O)[C@@H](NC(=O)CNC(=O)CN2CCN(CC(=O)O)CCN(CC(=O)O)CCN(CC(=O)O)CC2)CSSC[C@@H]2NC(=O)[C@H](C)NC(=O)CNC(=O)[C@@H]3CCCN3C(=O)[C@@H]3CSSC[C@@H](C(=O)NCC(=O)O)NC(=O)[C@H](Cc4ccc(O)cc4)NC(=O)CNC(=O)[C@H](CC(N)=O)NC(=O)CNC(=O)[C@H](CCCNC(=N)N)NC(=O)[C@H](CSSC[C@H](NC(=O)[C@H](CCCNC(=N)N)NC(=O)[C@H](Cc4ccccc4)NC(=O)[C@H](CC(C)C)NC(=O)[C@H](CC(C)C)NC(=O)[C@H]([C@@H](C)O)NC(=O)CNC(=O)[C@H](CC(C)C)NC(=O)[C@H](CC(=O)O)NC(=O)[C@H]([C@@H](C)O)NC(=O)[C@H](CCCNC(=N)N)NC(=O)CNC(=O)[C@H](CC(N)=O)NC(=O)[C@H](CC(C)C)NC1=O)C(=O)N[C@@H](CCCNC(=N)N)C(=O)N[C@@H](CCCNC(=N)N)C(=O)N[C@@H](CC(=O)O)C(=O)N[C@@H](CO)C(=O)N[C@@H](CC(=O)O)C(=O)N3)NC(=O)[C@H]([C@@H](C)CC)NC2=O", "note": "[^177Lu-DOTA-integrin αvβ6 knottin, metal not drawn]", "values": [{"measurement": "Binding affinity of the ^177Lu tracer", "setting": "[1]", "result": "low single-digit nanomolar range; also recorded: high affinity and specific binding to target-positive cells and tumors"}, {"measurement": "Expected absorbed dose, Liver", "setting": "[2]; [3]", "result": "9.34E-04", "unit": "mSv/MBq"}, {"measurement": "Expected absorbed dose, Thymus", "setting": "[2]; [3]", "result": "5.08E-06", "unit": "rem/mCi"}, {"measurement": "Dose-limiting organ", "setting": "[2]; human projection, preliminary", "result": "The absorbed doses in the kidney propose it as the dose-limiting organ"}]}
